PMC12793716, “Linked dimers of the AAA+ ATPase Msp1 reveal energetic demands and mechanistic plasticity for substrate extraction from lipid bilayers” (Febs Letters, 2025)
Substitutions are numbered along the chain they refer to. Numbers in names are those of the source.

B1: His6‐WT‐EQ‐2xStrep Dimer (covalently linked Msp1 dimer, soluble) (enzyme)
chain: DVESGPLSGKSRESKAKQSLQWEKLVKRSPALAEVTLDAYERTILSSIVTPDEINITFQDIGGLDPLISDLHESVIYPLMMPEVYSNSPLLQAPSGVLLYGPPGCGKTMLAKALAKESGANFISIRMSSIMDKWYGESNKIVDAMFSLANKLQPCIIFIDEIDSFLRERSSTDHEVTATLKAEFMTLWDGLLNNGRVMIIGATNRINDIDDAFLRRLPKRFLVSLPGSDQRYKILSVLLKDTKLDEDEFDLQLIADNTKGFSGSDLKELCREAALDAAKEYIKQKRQLIDSGTIDVNDTSSLKIRPLKTKDFTKKLRMDATSTLSSQPLDASGSGGSEASASAGAAGSGDGSGSGGSEGGTSGATDVESGPLSGKSRESKAKQSLQWEKLVKRSPALAEVTLDAYERTILSSIVTPDEINITFQDIGGLDPLISDLHESVIYPLMMPEVYSNSPLLQAPSGVLLYGPPGCGKTMLAKALAKESGANFISIRMSSIMDKWYGESNKIVDAMFSLANKLQPCIIFIDQIDSFLRERSSTDHEVTATLKAEFMTLWDGLLNNGRVMIIGATNRINDIDDAFLRRLPKRFLVSLPGSDQRYKILSVLLKDTKLDEDEFDLQLIADNTKGFSGSDLKELCREAALDAAKEYIKQKRQLIDSGTIDVNDTSSLKIRPLKTKDFTKKLRMDATSTLSSQPLD
notes: Msp1, subunit 1, wild type, deletion of the first 32 residues to remove the TMD; 35-residue flexible linker between the two subunits; Msp1, subunit 2, Walker B mutant E193Q, deletion of the first 32 residues to remove the TMD; Two Msp1 subunits on one chain; on SEC a mixture of the single chain (dimer) and the pseudohexamer (three chains); also called WT‐EQ dimer; source: E. coli BL21 pRIL, …
B2: His6‐EQ‐WT‐2xStrep Dimer (covalently linked Msp1 dimer, soluble) (enzyme)
chain: B1 chain with E161Q, Q526E
notes: Msp1, subunit 1, Walker B mutant E193Q, deletion of the first 32 residues to remove the TMD; 35-residue flexible linker between the two subunits; Msp1, subunit 2, wild type, deletion of the first 32 residues to remove the TMD; Two Msp1 subunits on one chain; on SEC a mixture of the single chain (dimer) and the pseudohexamer (three chains); also called EQ‐WT dimer; source: E. coli BL21 pRIL, …
B3: His6‐TEV‐Msp1 E193Q Monomer (enzyme, UniProt P28737 33-362, looked up)
chain: DVESGPLSGKSRESKAKQSLQWEKLVKRSPALAEVTLDAYERTILSSIVTPDEINITFQDIGGLDPLISDLHESVIYPLMMPEVYSNSPLLQAPSGVLLYGPPGCGKTMLAKALAKESGANFISIRMSSIMDKWYGESNKIVDAMFSLANKLQPCIIFIDQIDSFLRERSSTDHEVTATLKAEFMTLWDGLLNNGRVMIIGATNRINDIDDAFLRRLPKRFLVSLPGSDQRYKILSVLLKDTKLDEDEFDLQLIADNTKGFSGSDLKELCREAALDAAKEYIKQKRQLIDSGTIDVNDTSSLKIRPLKTKDFTKKLRMDATSTLSSQPLD
notes: Msp1 with the Walker B mutation E193Q, soluble construct: deletion of the first 32 residues as stated for the soluble constructs; A TEV site follows the His6 tag; No Strep tag; also called EQ; EQ monomer; source: E. coli BL21 pRIL, purified (Ni-NTA)

Target: the molecule itself
Experiment: SEC; analytical SEC, S200 Increase 3.2/300 GL, 20 mM Tris pH 7.5, 100 mM NaCl, 0.5 mM TCEP; 0.1 mL of 1.2 mg/mL (5 uM hexamer/pseudohexamer) Msp1 with 2 mM ATP, 2 mM MgCl2; 0.1 mL/min

Protein | stoichiometry N
B1 | 3
B2 | 3
B3 | 6
